3 molecules from paper PMC4726468, “Innovation of a Regulatory Mechanism Modulating Semi-determinate Stem Growth through Artificial Selection in Soybean” can be followed below.

In one data set the target is T1, Dt2-6xHis (soybean; cultivar of the cloned CDS not …, UniProt I1N4Q7 1-253).
T1 sequence: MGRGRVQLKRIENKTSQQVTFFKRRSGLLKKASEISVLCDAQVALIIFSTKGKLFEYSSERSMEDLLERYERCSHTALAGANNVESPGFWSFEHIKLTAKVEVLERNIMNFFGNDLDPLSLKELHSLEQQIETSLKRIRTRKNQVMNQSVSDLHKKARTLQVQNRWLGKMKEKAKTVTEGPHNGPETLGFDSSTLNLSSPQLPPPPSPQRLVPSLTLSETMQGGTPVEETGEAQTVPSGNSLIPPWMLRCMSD
In words: EMSA; DIG Gel Shift Kit (Roche 3353591910), manufacturer's instructions; buffer, salt, pH and temperature not stated. The conditions noted are these: protein: recombinant; tags: 6xHis (pET-DEST42); chain copies: 2; label: digoxigenin; blunt. (In general: Mobility shift assays separate free from complexed probe on a gel.)

In the next data set the target is GmSOC1-6xHis (soybean; cultivar of the cloned CDS not …, UniProt A0A2K7FY55 1-209). Described as above. The conditions noted are these: protein: recombinant; tags: 6xHis (pET-DEST42); chain copies: 2; label: digoxigenin; blunt.
GmSOC1-6xHis, sequence (A0A2K7FY55 entry or part of it): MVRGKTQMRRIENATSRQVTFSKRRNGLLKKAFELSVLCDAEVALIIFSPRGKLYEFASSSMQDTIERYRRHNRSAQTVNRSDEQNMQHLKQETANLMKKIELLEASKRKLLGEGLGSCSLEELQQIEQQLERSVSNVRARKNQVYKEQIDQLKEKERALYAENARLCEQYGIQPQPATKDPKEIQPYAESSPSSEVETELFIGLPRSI

B1: Dt1-CArG2 (dsDNA)
DNA 1: CTTATACCAAAATAAGCAACTAAC
DNA 2: GTTAGTTGCTTATTTTGGTATAAG
Turning to B1, the binding result with Dt2-6xHis was “binds”.

B2: Dt1-CArG1 (dsDNA)
DNA 1: AATATCCAAATTTAGAAATATG
DNA 2: CATATTTCTAAATTTGGATATT
B2: the binding result in the data set with Dt2-6xHis is reported as “binds”.

B3: Dt1-CArG5 (dsDNA)
DNA 1: TCTTTTACCAATATTGGAACTTGG
DNA 2: CCAAGTTCCAATATTGGTAAAAGA
Turning to B3, the binding result with GmSOC1-6xHis and with Dt2-6xHis was “binds” throughout.
